Measured values from article PMC3577912, “A Novel Role for Arabidopsis CBL1 in Affecting Plant Responses to Glucose and Gibberellin during Germination and Seedling Development” (PLoS ONE, 2013).

Biological target: T1, His-AKINβ1 fusion protein (Arabidopsis thaliana, UniProt Q84VQ1 1-283)
T1 construct: AKINβ1, β regulatory subunit of SnRK1, Arabidopsis thaliana, AT5G21170; also called pET-AKINβ1; His-tagged AKINβ1
T1 sequence (looked up): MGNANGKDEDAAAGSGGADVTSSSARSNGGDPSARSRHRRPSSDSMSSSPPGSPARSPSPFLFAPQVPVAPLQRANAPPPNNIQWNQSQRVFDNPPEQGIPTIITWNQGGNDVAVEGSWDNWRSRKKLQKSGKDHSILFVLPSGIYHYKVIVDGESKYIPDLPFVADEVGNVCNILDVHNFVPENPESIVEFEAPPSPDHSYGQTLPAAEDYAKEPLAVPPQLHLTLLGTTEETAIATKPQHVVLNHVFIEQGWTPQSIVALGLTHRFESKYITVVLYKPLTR
Test: pull-down; about 5 µg GST-CBL1 immobilised on Glutathione-Sepharose 4B beads, incubated with His-AKINβ1 overnight at 4°C, washed five times with ice-cold PBS, Western blot with anti-His antibody
Details: both partners purified

binding result: binds
B1: GST-CBL1 fusion protein (natural protein)
chain: not shown
notes: Calcineurin B-like protein 1 (CBL1), Arabidopsis thaliana, AT4G17615; also called pGEX-CBL1; glutathione S-transferase (GST)-CBL1; source: E. coli BL21 (DE3), purified (Glutathione Sepharose)
